The target of the assay is HLA-A2 on HLA-A2 positive lymphocytes / PBMCs (human). Put plainly: cell-based or functional assay.

As for “conjugate C (streptavidin-linked BB7.2 monoclonal antibody mixed with biotinylated HLA-G) (from UniProt P22629 37-163; P17693 25-299)”, the G-Body inhibitory effect on proliferation of PBMCs; CD3/CD28 beads; HLA-A2 positive donor C; Day 7 turned out to be 70%, the G-Body inhibitory effect on proliferation of PBMCs; CD3/CD28 beads; HLA-A2 positive donor D; Day 7 was 50%, the G-Body inhibitory effect on proliferation of PBMCs; CD3/CD28 beads; HLA-A2 positive donor G; Day 3 amounted to 40% and the G-Body inhibitory effect on proliferation of PBMCs; CD3/CD28 beads; HLA-A2 positive donor G; Day 7 worked out at 50%. This substance also returned a G-Body inhibitory effect on proliferation of PBMCs; CD3/CD28 beads; HLA-A2 positive donor J; Day 3 of 50%, a G-Body inhibitory effect on proliferation of PBMCs; SEB; HLA-A2 positive donor C; Day 3 of 60%, a G-Body inhibitory effect on proliferation of PBMCs; SEB; HLA-A2 positive donor J; Day 3 of 70% and a G-Body inhibitory effect on proliferation of PBMCs; SEB; HLA-A2 positive donor J; Day 7 of 70%.
